Assay results reported in patent publication US10709762B2, “Use of M-CSF for preventing or treating myeloid cytopenia and related complications” (priority 2013, dated 2020).

Columns and labels:
[1] = test system: PU.1 in HSC of PU.1-GFP reporter mice; experiment: PU.1-GFP reporter activation in HSC after in vivo injection (FACS)
Method: CD45.1 and C57Bl/6 mice were obtained from Charles River. PU.1-GFP^31 M-CSFR^−/−27 and PU.1^fl/fl 32 mice have been described. Age- and sex-matched CD45.1 recipients that were reconstituted as described^3 with CD45.2 foetal liver from wt or M-CSFR^−/− embryos^27 and PU.1^fl/fl or PU.1^fl/fl::MxCre bone marrow, were used to isolate CD150+CD34− KSLF HSC not earlier than 8 weeks after reconstitution. For in vivo injections the 10 μg/mouse M-CSF, 5 mg/kg LPS (055:B5 E. coli) or sorted cells were injected in 100 μl of PBS into the retro-orbital sinus. For HSC transplantation 400 CD150+CD34− KSLF HSC were sorted from CD45.2 mice and mixed with 100.000 Lin^+ Sca^− CD45.1 carrier cells prior to injection into sub-lethally irradiated (4.5 Gy) CD45.1 recipient mice. For competitive transplantations, 1300 CD150+, CD34-KSLF HSC were isolated 16 h after control or 10 μg M-CSF injection from actin-GFP CD45.2 mice^33, mixed with equal numbers of CD45.2 competitor HSC and injected with 300.000 Lin^+ Sca^− RC-lysed CD45.1 carrier cells into sub-lethally irradiated (4.5 Gy) CD45.1 recipients. Contribution to platelets, CD19+ B-cells and CD11b+ myeloid cells was analysed after 4 and 6 weeks in the blood from mice with at least 5% GFP+ donor cells. For PU.1 deletion PU.1^fl/fl or PU.1^fl/fl::MxCre reconstituted mice were intra-peritoneally injected with 5 μg/g Polyinosinic:polycytidylic acid 7 and 9 days prior to control (PBS) or 10 μg M-CSF injection. All mouse experiments were performed under specific pathogen-free conditions in accordance with institutional guidelines.
For FACS sorting and analysis we used described staining protocols^3 and published stem and progenitor cell definitions^34, FACSCANTO™ BD™ LSRII and FACSARIA™ III equipment and DIVA™ software (BECTON-DICKINSON), analysing only populations with at least 200 events. For HSC analysis we used antibodies anti-CD34-FITC (clone RAM34, BD BIOSCIENCES), anti-CD135-PE (clone A2F10.1, BD BIOSCIENCES), anti-CD150-Pe-Cy7 (clone TC15-12F12.2, BIOLEGEND), anti-CD117-APC H7 (clone 2B8, BD BIOSCIENCES), anti-Sca-1-Pe-Cy5 (clone D7, BIOLEGEND), anti-CD48-APC (clone HM48-1, BIOLEGEND). Diverging from this or in addition we used antibodies anti-CD34 Alexa 700 (clone RAM34, BD BIOSCIENCES), anti-CD16/32 PE (clone 2.4G2, BD BIOSCIENCES), anti-CD11b PE-CF594 (clone M1/70, BD BIOSCIENCES), anti-CD19PE-Cy7 (clone 1D3, BD biosciences), anti CD45.2 APC (clone 104, BD BIOSCIENCES) and anti CD45.1 Pacific Blue (clone A20, BD BIOSCIENCES) for progenitor and blood cell analysis. LIVE/DEAD Fixable Violet Dead cell dye (Invitrogen) was used as viability marker.

CD150hi HSC = experiment: In vitro culture of HSC, proliferation and survival; type: cell-based, mice; conditions: culture in the presence of M-CSF
Method: CD150+CD34− KSLF HSC or CD150+CD34− CD48− KSLF HSC (single cells) were sorted into S-clone SF-03 medium (Sanko Jyunyaku) with 10% FBS supplemented with 100 U/ml penicillin and […] streptomycin (both Invitrogen) and cultivated in uncoated U-Shape 96 well plates (Greiner) in 100 μl SCM, 20 ng/ml rSCF, 50 ng/ml rTPO+/−100 ng/ml rM-CSF or 100 ng/ml rGM-CSF or 100 ng/ml rG-CSF. All cytokines were murine and from PeproTech. Cell viability was analyzed by AnnexinV and Propidium iodide FACS staining^35.

[2] = test system: PU.1 promoter activation in single PU.1 negative HSC; experiment: Time-lapse video imaging of GFP-negative sorted HSC from PU.1-GFP mice; type: cell-based
Method: Wherever possible our video microscopy protocols followed proposed guidelines^24. In detail, FACS sorted CD150+ CD34− KSLF HCS from wt C57/Bl6 or GFP-negative CD150+ CD34− KSLF HSC from PU.1-GFP reporter mouse^31 bone marrow were suspended in SCM supplemented with 100 U/ml penicillin and […] streptomycin, 20 ng/ml rSCF, 50 ng/ml rTPO+/−100 ng/ml rM-CSF and plated in Ibidi μ-slidesVI(0.4) (Biovalley SA, France). Time-lapse microscopy was performed using a Cell Observer system (Carl Zeiss Microscopy GmbH, Germany) at 37° C. and 5% CO2. Images were acquired every 10 minutes using 10× (A-plan 10×/0.45 Ph1) or 40× (Plan-Apochromat 40×/0.95 Korr M27) objectives in brightfield and fluorescence (GFP filters: EX BP 470/40; at 350 ms) with a COOLSNAP™ HQ2 monochrome camera (Photometrics) with a 2×2 binning and a metal halide 120W source for fluorescence illumination. For image analysis a matrix of 4×4 images was acquired for each time point. Images were stitched with AxioVision software (Carl Zeiss Microscopy GmbH, Germany) and processed with Fiji software^36 using a slight rolling ball subtraction of background and 1 pixel Gaussian blur. For background subtraction of brightfield images, the median of z-projection was subtracted from the time-lapse stack. Single cell tracking was performed with basic commands of ImageJ^37 and Fiji^36 software and with specific tracking plugin MTrackJ^38 in manual mode. Each cell was tracked manually frame-by-frame in the bright field channel and cross-controlled by two microscope specialists. Cells with non-standard morphology or size were rejected. The fluorescence signal was measured as the difference of maximum minus minimum intensity within a defined region of interest (ROI) around each cell. Cell properties and behaviour (cell division, cell death, position, fluorescence increase) were manually documented to build cumulated curves. R^39 and Excel (Microsoft Corporation) software was used to manage data and build graphics.

B1: M-CSF: recombinant murine macrophage colony stimulating factor from PeproTech, used in Example 1 (protein, UniProt P07141 33-552, looked up)
Macrophage colony-stimulating …: KEVSEHCSHMIGNGHLKVLQQLIDSQMETSCQIAFEFVDQEQLDDPVCYLKKAFFLVQDIIDETMRFKDNTPNANATERLQELSNNLNSCFTKDYEEQNKACVRTFHETPLQLLEKIKNFFNETKNLLEKDWNIFTKNCNNSFAKCSSRDVVTKPDCNCLYPKATPSSDPASASPHQPPAPSMAPLAGLAWDDSQRTEGSSLLPSELPLRIEDPGSAKQRPPRSTCQTLESTEQPNHGDRLTEDSQPHPSAGGPVPGVEDILESSLGTNWVLEEASGEASEGFLTQEAKFSPSTPVGGSIQAETDRPRALSASPFPKSTEDQKPVDITDRPLTEVNPMRPIGQTQNNTPEKTDGTSTLREDHQEPGSPHIATPNPQRVSNSATPVAQLLLPKSHSWGIVLPLGELEGKRSTRDRRSPAELEGGSASEGAARPVARFNSIPLTDTGHVEQHEGSSDPQIPESVFHLLVPGIILVLLTVGGLLFYKWKWRSHRDPQTLDSSVGRPEDSSLTQDEDRQVELPV
With B1 the “PU.1 activation in CD150hi HSC compared with total HSC” value ([1]; 16 h after injection) was “activated PU.1 to a similar extent”, the “change in M-CSFR or MafB expression” value ([1]; HSC after M-CSF injection) was “no significant change” and the “PU.1 activation in HSC” value ([1]; PU.1-GFP reporter mice, direct intravenous injection, after 16 h) was “significantly increased PU.1 activation”. For the same molecule, the “change in the proportion of CD150hi HSC” value ([1]; in GFP-positive or -negative HSC) was “no change”, the “proliferation or survival advantage of cultured CD150hi HSC” value (CD150hi HSC) was “no proliferation or survival advantage” and the “proliferation or survival advantage of cultured HSC (video-microscopy)” value ([2]; culture in M-CSF) was “no proliferation or survival advantage”. For the same molecule, the “PU.1+ cells developed versus control conditions” value ([2]; end of the 24 h observation period (18 to 42 hours of culture)) was “over two-fold more PU.1+ cells”, the “commitment events of PU.1 activation occurred earlier” value ([2]; in the presence of M-CSF versus control) was 8 h and the “rate of PU.1 activation events” value ([2]; over the whole observation period) was “higher rate”.
